{"source": "the supplement of paper PMC10567573", "parents": {"B1": {"name": "SMOC2 (parent)", "chain": "QKPLCASDGRTFLSRCEFQRAKCK"}}, "data": [{"variants_of": "B1", "assay": "protein stability index of a GFP-peptide fusion (GPS, HEK-293T) (PSI 1-6); higher = more stable", "conditions": "c terminus: a fixed tail appended", "values": [{"variant": "QKPLCASDGRTFLSRCEDQRAKCK", "note": "[F18D]", "protein stability index": 4.12}, {"variant": "QKPLCASDGRTFLSRCESQRAKCK", "note": "[F18S]", "protein stability index": 3.82}, {"variant": "QKPLCASDGRTFLSRCEPQRAKCK", "note": "[F18P]", "protein stability index": 3.49}, {"variant": "QKPLCASDGRTFLSRCEKQRAKCK", "note": "[F18K]", "protein stability index": 4.62}, {"variant": "QKPLCASDGRTFLSRCEEQRAKCK", "note": "[F18E]", "protein stability index": 4.73}, {"variant": "QKPLCASDGRTFLSRCECQRAKCK", "note": "[F18C]", "protein stability index": 3.56}, {"variant": "QKPLCASDFRTFLSRCEFQRAKCK", "note": "[G9F]", "protein stability index": 2.2}, {"variant": "QKPLCASDARTFLSRCEFQRAKCK", "note": "[G9A]", "protein stability index": 2.58}, {"variant": "QKPLCASDTRTFLSRCEFQRAKCK", "note": "[G9T]", "protein stability index": 2.67}, {"variant": "QKPLCASDLRTFLSRCEFQRAKCK", "note": "[G9L]", "protein stability index": 2.68}, {"variant": "QKPLCASDVRTFLSRCEFQRAKCK", "note": "[G9V]", "protein stability index": 2.93}, {"variant": "QKPLCASDWRTFLSRCEFQRAKCK", "note": "[G9W]", "protein stability index": 2.82}, {"variant": "QKPLCASDSRTFLSRCEFQRAKCK", "note": "[G9S]", "protein stability index": 3.42}, {"variant": "QKPLCASDHRTFLSRCEFQRAKCK", "note": "[G9H]", "protein stability index": 2.75}, {"variant": "QKPLCASDYRTFLSRCEFQRAKCK", "note": "[G9Y]", "protein stability index": 1.9}, {"variant": "QKPLCASDIRTFLSRCEFQRAKCK", "note": "[G9I]", "protein stability index": 1.9}, {"variant": "QKYLCASDGRTFLSRCEFQRAKCK", "note": "[P3Y]", "protein stability index": 2.83}, {"variant": "QKFLCASDGRTFLSRCEFQRAKCK", "note": "[P3F]", "protein stability index": 1.89}, {"variant": "QKGLCASDGRTFLSRCEFQRAKCK", "note": "[P3G]", "protein stability index": 2.5}, {"variant": "QKMLCASDGRTFLSRCEFQRAKCK", "note": "[P3M]", "protein stability index": 3.12}, {"variant": "QKVLCASDGRTFLSRCEFQRAKCK", "note": "[P3V]", "protein stability index": 2.31}, {"variant": "QKHLCASDGRTFLSRCEFQRAKCK", "note": "[P3H]", "protein stability index": 2.17}, {"variant": "QKILCASDGRTFLSRCEFQRAKCK", "note": "[P3I]", "protein stability index": 2.16}, {"variant": "QKQLCASDGRTFLSRCEFQRAKCK", "note": "[P3Q]", "protein stability index": 2.28}, {"variant": "QKELCASDGRTFLSRCEFQRAKCK", "note": "[P3E]", "protein stability index": 4.05}, {"variant": "QKPLCASDGRTFLSRPEFQRAKCK", "note": "[C16P]", "protein stability index": 3.57}, {"variant": "QKPLCASDGRTFLSRFEFQRAKCK", "note": "[C16F]", "protein stability index": 3.86}, {"variant": "QKPLCASDGRTFLSRNEFQRAKCK", "note": "[C16N]", "protein stability index": 4.28}, {"variant": "QKPLCASDGRTFLSRTEFQRAKCK", "note": "[C16T]", "protein stability index": 3.96}, {"variant": "QKPLCASDGRTFLSRSEFQRAKCK", "note": "[C16S]", "protein stability index": 3.83}, {"variant": "QKPLCASDGRTFLSRCTFQRAKCK", "note": "[E17T]", "protein stability index": 3.3}, {"variant": "QKPLCASDGRTFLSRCFFQRAKCK", "note": "[E17F]", "protein stability index": 2.32}, {"variant": "QKPLCASDGRTFLSRCHFQRAKCK", "note": "[E17H]", "protein stability index": 2.84}, {"variant": "QKPLCASDGRTFLSRCGFQRAKCK", "note": "[E17G]", "protein stability index": 2.26}, {"variant": "QKPLCASDGRTFLSRCWFQRAKCK", "note": "[E17W]", "protein stability index": 1.54}, {"variant": "GKPLCASDGRTFLSRCEFQRAKCK", "note": "[Q1G]", "protein stability index": 3.23}, {"variant": "IKPLCASDGRTFLSRCEFQRAKCK", "note": "[Q1I]", "protein stability index": 2.19}, {"variant": "LKPLCASDGRTFLSRCEFQRAKCK", "note": "[Q1L]", "protein stability index": 2.17}, {"variant": "TKPLCASDGRTFLSRCEFQRAKCK", "note": "[Q1T]", "protein stability index": 3.41}, {"variant": "SKPLCASDGRTFLSRCEFQRAKCK", "note": "[Q1S]", "protein stability index": 2.68}, {"variant": "CKPLCASDGRTFLSRCEFQRAKCK", "note": "[Q1C]", "protein stability index": 1.87}, {"variant": "QKPYCASDGRTFLSRCEFQRAKCK", "note": "[L4Y]", "protein stability index": 1.99}, {"variant": "QKPNCASDGRTFLSRCEFQRAKCK", "note": "[L4N]", "protein stability index": 3.08}, {"variant": "QKPHCASDGRTFLSRCEFQRAKCK", "note": "[L4H]", "protein stability index": 2.59}, {"variant": "QKPRCASDGRTFLSRCEFQRAKCK", "note": "[L4R]", "protein stability index": 3.25}, {"variant": "QKPFCASDGRTFLSRCEFQRAKCK", "note": "[L4F]", "protein stability index": 2.18}, {"variant": "QKPVCASDGRTFLSRCEFQRAKCK", "note": "[L4V]", "protein stability index": 2.52}, {"variant": "QKPLCCSDGRTFLSRCEFQRAKCK", "note": "[A6C]", "protein stability index": 2.57}, {"variant": "QKPLCFSDGRTFLSRCEFQRAKCK", "note": "[A6F]", "protein stability index": 1.89}, {"variant": "QKPLCTSDGRTFLSRCEFQRAKCK", "note": "[A6T]", "protein stability index": 2.42}, {"variant": "QKPLCQSDGRTFLSRCEFQRAKCK", "note": "[A6Q]", "protein stability index": 3.21}, {"variant": "QKPLCNSDGRTFLSRCEFQRAKCK", "note": "[A6N]", "protein stability index": 2.63}, {"variant": "QKPLCVSDGRTFLSRCEFQRAKCK", "note": "[A6V]", "protein stability index": 3.69}, {"variant": "QKPLCKSDGRTFLSRCEFQRAKCK", "note": "[A6K]", "protein stability index": 2.82}, {"variant": "QKPLCISDGRTFLSRCEFQRAKCK", "note": "[A6I]", "protein stability index": 2.74}, {"variant": "QKPLCWSDGRTFLSRCEFQRAKCK", "note": "[A6W]", "protein stability index": 2.69}, {"variant": "QKPLCMSDGRTFLSRCEFQRAKCK", "note": "[A6M]", "protein stability index": 2.48}, {"variant": "QKPLCASNGRTFLSRCEFQRAKCK", "note": "[D8N]", "protein stability index": 2.77}, {"variant": "QKPLCASKGRTFLSRCEFQRAKCK", "note": "[D8K]", "protein stability index": 2.56}, {"variant": "QKPLCASPGRTFLSRCEFQRAKCK", "note": "[D8P]", "protein stability index": 2.75}, {"variant": "QKPLCASMGRTFLSRCEFQRAKCK", "note": "[D8M]", "protein stability index": 2.63}, {"variant": "QKPLCASIGRTFLSRCEFQRAKCK", "note": "[D8I]", "protein stability index": 2.35}, {"variant": "QKPLCASQGRTFLSRCEFQRAKCK", "note": "[D8Q]", "protein stability index": 1.93}, {"variant": "QKPLCASTGRTFLSRCEFQRAKCK", "note": "[D8T]", "protein stability index": 2.9}, {"variant": "QKPLCASDGRTFLSRCEFQRAPCK", "note": "[K22P]", "protein stability index": 2.88}, {"variant": "QKPLCASDGRTFLSRCEFQRAVCK", "note": "[K22V]", "protein stability index": 2.86}, {"variant": "QKPLCASDGRTFLSRCEFQRAMCK", "note": "[K22M]", "protein stability index": 2.36}, {"variant": "QKPLCASDGRTFLSRCEFQRAECK", "note": "[K22E]", "protein stability index": 2.76}, {"variant": "QKPLCASDGRTFLSRCEFQRADCK", "note": "[K22D]", "protein stability index": 2.9}, {"variant": "QKPLCASDGRTFLSRCEFQRAWCK", "note": "[K22W]", "protein stability index": 2.86}, {"variant": "QKPLCASDGRTFLSRCEFQRAACK", "note": "[K22A]", "protein stability index": 3.02}, {"variant": "QKPLCASDGRTVLSRCEFQRAKCK", "note": "[F12V]", "protein stability index": 3.92}, {"variant": "QKPLCASDGRTHLSRCEFQRAKCK", "note": "[F12H]", "protein stability index": 4.22}, {"variant": "QKPLCASDGRTYLSRCEFQRAKCK", "note": "[F12Y]", "protein stability index": 2.49}, {"variant": "QKPLCASDGRTMLSRCEFQRAKCK", "note": "[F12M]", "protein stability index": 3.16}, {"variant": "QKPLCASDGRTLLSRCEFQRAKCK", "note": "[F12L]", "protein stability index": 2.97}, {"variant": "QKPLCASDGRTCLSRCEFQRAKCK", "note": "[F12C]", "protein stability index": 2.97}, {"variant": "QKPLCASDGRTRLSRCEFQRAKCK", "note": "[F12R]", "protein stability index": 3.73}, {"variant": "QKPLCASDGRTPLSRCEFQRAKCK", "note": "[F12P]", "protein stability index": 4}, {"variant": "QKPLCASDGRTTLSRCEFQRAKCK", "note": "[F12T]", "protein stability index": 3.63}, {"variant": "QKPLCASDGRTILSRCEFQRAKCK", "note": "[F12I]", "protein stability index": 3.4}, {"variant": "QKPLCASDGRTNLSRCEFQRAKCK", "note": "[F12N]", "protein stability index": 3.96}, {"variant": "QKPLCASDGRTFTSRCEFQRAKCK", "note": "[L13T]", "protein stability index": 3.93}, {"variant": "QKPLCASDGRTFSSRCEFQRAKCK", "note": "[L13S]", "protein stability index": 2.44}, {"variant": "QKPLCASDGRTFYSRCEFQRAKCK", "note": "[L13Y]", "protein stability index": 2.52}, {"variant": "QKPLCASDGRTFNSRCEFQRAKCK", "note": "[L13N]", "protein stability index": 3.78}, {"variant": "QKPLCASDGRTFRSRCEFQRAKCK", "note": "[L13R]", "protein stability index": 3.15}, {"variant": "QKPLCASDGRTFVSRCEFQRAKCK", "note": "[L13V]", "protein stability index": 2.29}, {"variant": "QKPLCASDGRTFQSRCEFQRAKCK", "note": "[L13Q]", "protein stability index": 3.4}, {"variant": "QKPLCASDGRTFKSRCEFQRAKCK", "note": "[L13K]", "protein stability index": 3.3}, {"variant": "QKPLCASDGRTFDSRCEFQRAKCK", "note": "[L13D]", "protein stability index": 4.78}, {"variant": "QKPLCASDGRTFHSRCEFQRAKCK", "note": "[L13H]", "protein stability index": 3.31}, {"variant": "QKPLCASDGRTFLSRCEFQQAKCK", "note": "[R20Q]", "protein stability index": 3.52}, {"variant": "QKPLCASDGRTFLSRCEFQLAKCK", "note": "[R20L]", "protein stability index": 3.01}]}]}
